Positions count from the first letter of the chain named. Names and notes keep the numbering of the source.

Data set [1] has as its target T1, N4posAbl (Abl kinase domain with N-terminal KRKKSGG tag) (Homo sapiens, UniProt P00519).
T1 sequence (P00519 229-512): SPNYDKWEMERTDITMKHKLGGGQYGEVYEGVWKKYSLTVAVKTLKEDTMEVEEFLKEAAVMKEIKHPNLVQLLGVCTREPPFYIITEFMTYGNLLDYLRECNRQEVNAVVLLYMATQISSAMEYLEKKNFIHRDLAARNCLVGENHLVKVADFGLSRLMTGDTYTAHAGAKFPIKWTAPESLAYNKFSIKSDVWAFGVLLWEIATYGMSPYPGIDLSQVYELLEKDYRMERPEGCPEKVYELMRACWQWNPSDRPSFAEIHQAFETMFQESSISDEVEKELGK
The data set is described as follows: ClyA-AS nanopore tweezers single-channel current recording: ligand binding to N4posAbl.

For data set [2], the target named is T2, N4posG321V (Abl kinase domain hinge mutant) (Homo sapiens, UniProt P00519, G321V).
T2 construct: His10-TEV (N, cleaved yes); made in house; host or cells: E. coli BL21(DE3)pLysS, co-expressed with YopH phosphatase
T2 sequence (P00519 229-512 G321V): T1 sequence (P00519 229-512) with G93V
The data set is described as follows: ClyA-AS nanopore tweezers single-channel current recording: ligand binding to N4posG321V.

In a further data set the target is Abl kinase. The note with it: read-out: reported KD of ATP; cited from earlier work.
Data set [3] relates to kinase substrate peptide Abltide. The data set can be described thus: Enzyme-coupled Abl kinase assay (NADH consumption), Michaelis-Menten kinetics. The class given is biochemical. Conditions: for Vmax / kcat: Abltide 50~800 µM, […] ATP, 30 nM kinase, 30 °C; for catalytic activity: Michaelis-Menten kinetic analysis. How it is done: (§1) Absorbance at 340 nm was monitored with a microtiter plate spectrophotometer (BioTek Synergy 2) for 30 min. The background kinase activity was determined in the reaction mix without the substrate peptide and subtracted from the experiments with the substrate peptide. To obtain the enzyme kinetics, initial phosphorylation rates at different substrate peptide concentrations (50~800 µM) were measured. Plots of the initial rate as a function of peptide substrate concentration were fit by nonlinear regression to obtain the Michaelis-Menten kinetic parameters.

The target of data set [4] is T3, kinase substrate peptide Abltide (Homo sapiens, UniProt P00519).
T3 sequence (P00519 229-512): T1 sequence (P00519 229-512)
The data set is described as above. In kind it is biochemical. How it is done: as §1

A short description of data set [5]: Conformational state analysis of apo Abl kinases in ClyA-AS nanopore (S1/S2 and S1 sub-state dwell times, populations, rate constants, free energy). Also noted: species or system human.
Data set [6] addresses T4, N4posAbl: wildtype Abl kinase domain (residues 229-512) with a positively charged peptide tail (N4pos tag, … (human, UniProt P00519 229-512)).
T4 sequence (looked up): T1 sequence (P00519 229-512)
The data set is described as follows: ClyA nanopore tweezers (single-channel current recording); single Abl kinase molecule trapped in a ClyA-AS nanopore in a DPhPC bilayer; Abltide titrated with 10 mM MgCl2; occupancy of the bound state against concentration fitted with a single site binding model; -80 mV, 150 mM NaCl, 100 mM Tris-HCl, pH 7.5, 22 °C, ~100 nM kinase in cis. Conditions: both partners purified.

Data set [7] deals with T5, N4posG321V: Abl kinase domain (residues 229-512) hinge mutant G321V with the N4pos tag (KRKKSGG) at its … (human, UniProt P00519 229-512, G321V).
T5 construct: also called Abl G321V
T5 sequence (looked up): T1 sequence (P00519 229-512) with G93V
The data set is described as above. The note with it: both partners purified.

Take `[Cl-].[Cl-].[Mg+2]` [MgCl2]: the “effect on N4posAbl current signal / conformational states” value in data set [1] is recorded as “did not trigger any noticeable change”.

As for ATP, in data set [2], the “effect on N4posG321V current trace” value was “did not trigger any change in the current trace”. Moreover, the Kd on Abl kinase was 69 ± 4 µM.

B1: Abl: wildtype Abl kinase domain (residue 229-512) (protein)
chain: T1 sequence (P00519 229-512)
For B1, in data set [3], the Vmax was determined as 12.8 ± 1.3 µM/min and the kcat stood at 7.112 ± 0.717 s⁻¹. Besides, in data set [4], the kcat worked out at 7.1 ± 0.7 s⁻¹.

B2: N4posG321V: N4posAbl hinge mutant G321V intended to enhance rigidity; catalytically inactive (protein)
chain: T1 sequence (P00519 229-512) with G93V
With B2, in data set [5] (N4posG321V, 16 pores, single S1 dwell events), the τS1 came out at 1005.56 ms. Besides, the “τS1 (ms), 16 pores” value in data set [5] (N4posG321V, individual S1 dwell times, 16 pores) was 214.2 ms. Also, the catalytic activity entry in data set [3] was “abrogated the catalytic activity”.

B3: N4posAbl: Abl kinase domain with positively charged peptide tail KRKKSGG at its N-terminus (protein)
chain: T1 sequence (P00519 229-512)
Regarding B3, the τS1 in data set [5] (N4posAbl, pore #1, single S1 dwell events) is on record as 443.75 ms. The τS1 in data set [5] (N4posAbl, pore #3, single S1 dwell events) is recorded as 1114.75 ms. Also, the τS2 in data set [5] (N4posAbl, pore #3, single S2 dwell events) is reported as 3255.5 ms. For the same molecule, in data set [3], the Vmax worked out at 13.3 ± 1.1 µM/min, the kcat amounted to 7.395 ± 0.585 s⁻¹ and the catalytic activity entry is “no influence on the catalytic activity”.

Take KKGEAIYAAPFA (Abl substrate peptide Abltide) [kinase substrate peptide Abltide]: the dissociation constant Kd came out at 69.9 ± 13 µM in data set [6] and 257 ± 55.9 µM in data set [7].

As usually defined, the Kd is a measure of binding affinity in units of concentration. By Vmax is commonly meant the rate approached at saturating substrate. Usually kcat stands for the maximal rate divided by the concentration of active sites.

Values taken from publication PMC9209526 (Nature Communications, 2022).
